Consider 2 substances from PMC6813310.

For test [1], the target named is M2-1 fused to the N2 complementation fragment of NanoLuc (human respiratory syncytial virus, strain Long). Description: split reporter (BiFC, NanoBiT); NanoLuc two-hybrid (N2H) complementation in HEK293T cells, 24 h after transfection; lysates incubated 1 h with 100 µg/ml RNAse A; normalized luminescence ratio (NLR) over control protein pairs.
Test [2] has as its target M2-1 fused to GFP, expressed by the recombinant virus RSV-M2-1-GFP (human respiratory syncytial virus, strain Long). Kind of test: co-IP; GFP-Trap beads on lysates of HEp-2 cells infected with RSV-M2-1-GFP, 14 h p.i., without RNAse in the lysis; immunoblot. In general terms: In western blotting, separated proteins are transferred to a membrane and probed.
The target is the same in test [3]. Description: co-IP; GFP-Trap beads on lysates of HEp-2 cells infected with RSV-M2-1-GFP or RSV-GFP (control), 14 h p.i., with RNAse (RNAse A or broad-spectrum nuclease) in the lysis; Tris 10 mM pH 7.5, NaCl 150 mM, IGEPAL CA-630 0.5%; overnight at 4 °C; immunoblot.

“PABPC1 fragment 492-636 fused to the N1 fragment of NanoLuc (from UniProt P11940 492-636) (domain or fragment)”: the NLR as percent of the signal of the whole PABPC1 in test [1] worked out at 50%. On to “cytoplasmic polyA-binding protein 1 (PABPC1), endogenous in HEp-2 cells (from UniProt P11940 1-636) (natural protein)”, for which the values for the percent of total PABPC1 in the input co-immunoprecipitated in test [2] and in test [3] were 5.71% and 2.08%, respectively.
